Test results published in EP4177273A1.

What was measured:
[1] = target: human Claudin 18 splice variant 2 (CLDN18.2) (human); test: cell-based or functional assay
[2] = target: human Claudin 18 splice variant 2 (CLDN18.2) (human); test: FACS, 2E5 Panc05.04 cells/100 µl stained with 50 µg/ml IMAB362
[3] = target: human Claudin 18 splice variant 2 (CLDN18.2) (human); test: FACS, 2E5 Patu8988S cells/100 µl stained with 50 µg/ml IMAB362
[4] = target: human Claudin 18 splice variant 2 (CLDN18.2) (human); test: FACS with FITC-labeled IMAB362 on DANG-LVT cells 2 days after transduction with human CLDN18.2
[5] = target: human Claudin 18 splice variant 2 (CLDN18.2) (human); test: FACS with FITC-labeled IMAB362 on HPAC-LVT cells 2 days after transduction with human CLDN18.2
[6] = target: human Claudin 18 splice variant 2 (CLDN18.2) (human); test: FACS with FITC-labeled IMAB362 on YAPC-LVT cells 2 days after transduction with human CLDN18.2
[7] = target: human Claudin 18 splice variant 2 (CLDN18.2) (human); test: FACS with FITC-labeled IMAB362 on BxPC3-LVT cells 2 days after transduction with human CLDN18.2
[8] = target: human Claudin 18 splice variant 2 (CLDN18.2) (human); test: FACS with FITC-labeled IMAB362 on Suit2-LVT cells 2 days after transduction with human CLDN18.2
[9] = target: human Claudin 18 splice variant 2 (CLDN18.2) (human); test: FACS with FITC-labeled IMAB362 on CAPAN1-LVT cells 2 days after transduction with human CLDN18.2
[10] = target: human Claudin 18 splice variant 2 (CLDN18.2) (human); test: FACS with FITC-labeled IMAB362 on Patu8902-LVT cells 2 days after transduction with human CLDN18.2
[11] = target: human Claudin 18 splice variant 2 (CLDN18.2) (human); test: FACS with FITC-labeled IMAB362 on MiaPaCa-2-LVT cells 2 days after transduction with human CLDN18.2

Q: IMAB362 (antibody) was tested. Which ADCC EC50 (ng/ml), BxPC3 LVT cells, human PBMC E:T 40:1 [1] did it give?
A: The ADCC EC50 (ng/ml), BxPC3 LVT cells, human PBMC E:T 40:1 was 47.7 ng/mL.

Q: And the ADCC EC50 (ng/ml), CAPAN1-LVT cells, human PBMC E:T 40:1 [1]?
A: Its ADCC EC50 (ng/ml), CAPAN1-LVT cells, human PBMC E:T 40:1 is 65 ng/mL.

Q: What about the ADCC EC50 (ng/ml), DANG cells (endogenous CLDN18.2), human PBMC E:T 40:1 [1] of the same substance?
A: The ADCC EC50 (ng/ml), DANG cells (endogenous CLDN18.2), human PBMC E:T 40:1 was 4980 ng/mL.

Q: What about the ADCC EC50 (ng/ml), DANG-LVT cells, human PBMC E:T 40:1 [1] of the same substance?
A: Its ADCC EC50 (ng/ml), DANG-LVT cells, human PBMC E:T 40:1 is 52.3 ng/mL.

Q: And the ADCC EC50 (ng/ml), HPAC-LVT cells, human PBMC E:T 40:1 [1]?
A: The ADCC EC50 (ng/ml), HPAC-LVT cells, human PBMC E:T 40:1 was 117 ng/mL.

Q: And the ADCC EC50 (ng/ml), MiaPaCa2-LVT cells, human PBMC E:T 40:1 [1]?
A: The ADCC EC50 (ng/ml), MiaPaCa2-LVT cells, human PBMC E:T 40:1 was 23.4 ng/mL.

Q: And the ADCC EC50 (ng/ml), Panc05.04 cells (endogenous CLDN18.2), human PBMC E:T 40:1 [1]?
A: The ADCC EC50 (ng/ml), Panc05.04 cells (endogenous CLDN18.2), human PBMC E:T 40:1 was 5730 ng/mL.

Q: What about the ADCC EC50 (ng/ml), Patu8902-LVT cells, human PBMC E:T 40:1 [1] of the same substance?
A: The ADCC EC50 (ng/ml), Patu8902-LVT cells, human PBMC E:T 40:1 was 49.2 ng/mL.

Q: And the ADCC EC50 (ng/ml), Patu8988S cells (endogenous CLDN18.2), human PBMC E:T 40:1 [1]?
A: The ADCC EC50 (ng/ml), Patu8988S cells (endogenous CLDN18.2), human PBMC E:T 40:1 was 175 ng/mL.

Q: What about the ADCC EC50 (ng/ml), Suit2-LVT cells, human PBMC E:T 40:1 [1] of the same substance?
A: Its ADCC EC50 (ng/ml), Suit2-LVT cells, human PBMC E:T 40:1 is 73.2 ng/mL.

Q: And the ADCC EC50 (ng/ml), YAPC-LVT cells, human PBMC E:T 40:1 [1]?
A: Its ADCC EC50 (ng/ml), YAPC-LVT cells, human PBMC E:T 40:1 is 29.5 ng/mL.

Q: What about the ADCC EC50, DANG/Panc05.04 cells, PBMCs of different donors [1] of the same substance?
A: Its ADCC EC50, DANG/Panc05.04 cells, PBMCs of different donors is 0.1 to 38 µg/mL.

Q: And the ADCC EC50, Patu8988S cells, PBMCs of different donors [1]?
A: The ADCC EC50, Patu8988S cells, PBMCs of different donors was 0.01 to 1.4 µg/mL.

Q: What about the ADCC Max. lysis (%), BxPC3 LVT cells, human PBMC E:T 40:1 [1] of the same substance?
A: Its ADCC Max. lysis (%), BxPC3 LVT cells, human PBMC E:T 40:1 is 90.6%.

Q: What about the ADCC Max. lysis (%), CAPAN1-LVT cells, human PBMC E:T 40:1 [1] of the same substance?
A: Its ADCC Max. lysis (%), CAPAN1-LVT cells, human PBMC E:T 40:1 is 92.6%.

Q: And the ADCC Max. lysis (%), DANG cells (endogenous CLDN18.2), human PBMC E:T 40:1 [1]?
A: Its ADCC Max. lysis (%), DANG cells (endogenous CLDN18.2), human PBMC E:T 40:1 is 52.5%.

Q: And the ADCC Max. lysis (%), DANG-LVT cells, human PBMC E:T 40:1 [1]?
A: The ADCC Max. lysis (%), DANG-LVT cells, human PBMC E:T 40:1 was 85.9%.

Q: And the ADCC Max. lysis (%), HPAC-LVT cells, human PBMC E:T 40:1 [1]?
A: Its ADCC Max. lysis (%), HPAC-LVT cells, human PBMC E:T 40:1 is 76.2%.

Q: And the ADCC Max. lysis (%), MiaPaCa2-LVT cells, human PBMC E:T 40:1 [1]?
A: The ADCC Max. lysis (%), MiaPaCa2-LVT cells, human PBMC E:T 40:1 was 78.1%.

Q: What about the ADCC Max. lysis (%), Panc05.04 cells (endogenous CLDN18.2), human PBMC E:T 40:1 [1] of the same substance?
A: Its ADCC Max. lysis (%), Panc05.04 cells (endogenous CLDN18.2), human PBMC E:T 40:1 is 67.1%.

Q: What about the ADCC Max. lysis (%), Patu8902-LVT cells, human PBMC E:T 40:1 [1] of the same substance?
A: Its ADCC Max. lysis (%), Patu8902-LVT cells, human PBMC E:T 40:1 is 74.1%.

Q: What about the ADCC Max. lysis (%), Patu8988S cells (endogenous CLDN18.2), human PBMC E:T 40:1 [1] of the same substance?
A: Its ADCC Max. lysis (%), Patu8988S cells (endogenous CLDN18.2), human PBMC E:T 40:1 is 70.1%.

Q: What about the ADCC Max. lysis (%), Suit2-LVT cells, human PBMC E:T 40:1 [1] of the same substance?
A: The ADCC Max. lysis (%), Suit2-LVT cells, human PBMC E:T 40:1 was 81.2%.

Q: What about the ADCC Max. lysis (%), YAPC-LVT cells, human PBMC E:T 40:1 [1] of the same substance?
A: Its ADCC Max. lysis (%), YAPC-LVT cells, human PBMC E:T 40:1 is 91.5%.

Q: What about the CDC EC50 (ng/ml), CAPAN1-LVT cells, human serum pool [1] of the same substance?
A: The CDC EC50 (ng/ml), CAPAN1-LVT cells, human serum pool was 970 ng/mL.

Q: What about the CDC EC50 (ng/ml), MiaPaCa2-LVT cells, human serum pool [1] of the same substance?
A: The CDC EC50 (ng/ml), MiaPaCa2-LVT cells, human serum pool was 340 ng/mL.

Q: What about the CDC EC50 (ng/ml), Patu8902-LVT cells, human serum pool [1] of the same substance?
A: Its CDC EC50 (ng/ml), Patu8902-LVT cells, human serum pool is 291 ng/mL.

Q: And the CDC EC50, MiaPaCa-2-LVT cells pretreated with gemcitabine [1]?
A: The CDC EC50, MiaPaCa-2-LVT cells pretreated with gemcitabine was 4.68 µg/mL.

Q: What about the CDC EC50, MiaPaCa-2-LVT, Suit2-LVT and CAPAN1-LVT cells, human serum [1] of the same substance?
A: Its CDC EC50, MiaPaCa-2-LVT, Suit2-LVT and CAPAN1-LVT cells, human serum is 0.3 to 2.6 µg/mL.

Q: What about the CDC EC50, medium cultivated MiaPaCa-2-LVT cells [1] of the same substance?
A: Its CDC EC50, medium cultivated MiaPaCa-2-LVT cells is 7.67 µg/mL.

Q: What about the CDC Max. lysis (%), CAPAN1-LVT cells, human serum pool [1] of the same substance?
A: Its CDC Max. lysis (%), CAPAN1-LVT cells, human serum pool is 79.1%.

Q: And the CDC Max. lysis (%), MiaPaCa2-LVT cells, human serum pool [1]?
A: Its CDC Max. lysis (%), MiaPaCa2-LVT cells, human serum pool is 78.4%.

Q: And the CDC Max. lysis (%), Patu8902-LVT cells, human serum pool [1]?
A: Its CDC Max. lysis (%), Patu8902-LVT cells, human serum pool is 76.7%.

Q: What about the CLDN18 surface expression (FACS), % positive cells [2] of the same substance?
A: Its CLDN18 surface expression (FACS), % positive cells is 15%.

Q: What about the CLDN18 surface expression (FACS), % positive cells [3] of the same substance?
A: Its CLDN18 surface expression (FACS), % positive cells is 81.7%.

Q: And the Transduction efficiency (% cells positive) [4]?
A: Its Transduction efficiency (% cells positive) is 87.5%.

Q: And the Transduction efficiency (% cells positive) [5]?
A: The Transduction efficiency (% cells positive) was 97.3%.

Q: And the Transduction efficiency (% cells positive) [6]?
A: The Transduction efficiency (% cells positive) was 82.2%.

Q: And the Transduction efficiency (% cells positive) [7]?
A: Its Transduction efficiency (% cells positive) is 92.8%.

Q: What about the Transduction efficiency (% cells positive) [8] of the same substance?
A: Its Transduction efficiency (% cells positive) is 92.2%.

Q: And the Transduction efficiency (% cells positive) [9]?
A: Its Transduction efficiency (% cells positive) is 89.6%.

Q: What about the Transduction efficiency (% cells positive) [10] of the same substance?
A: Its Transduction efficiency (% cells positive) is 93%.

Q: And the Transduction efficiency (% cells positive) [11]?
A: Its Transduction efficiency (% cells positive) is 96.3%.
